T1: SHANK1, Q9Y566
T1 sequence (Q9Y566 658-767, limits assumed, looked up): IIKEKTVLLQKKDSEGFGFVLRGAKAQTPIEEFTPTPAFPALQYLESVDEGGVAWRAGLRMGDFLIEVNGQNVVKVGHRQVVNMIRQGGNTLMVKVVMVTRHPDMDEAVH

T2: GRIP1_5, Q9Y3R0
T2 sequence (Q9Y3R0 568-668, limits assumed, looked up): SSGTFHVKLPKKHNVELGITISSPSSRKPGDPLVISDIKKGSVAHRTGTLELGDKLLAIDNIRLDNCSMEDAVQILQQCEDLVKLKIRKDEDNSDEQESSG

T3: DLG3_1, Q92796
T3 sequence (Q92796 125-227, limits assumed, looked up): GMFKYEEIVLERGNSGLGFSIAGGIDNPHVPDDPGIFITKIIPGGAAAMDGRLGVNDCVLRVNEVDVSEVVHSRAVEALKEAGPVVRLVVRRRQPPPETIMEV

T4: PDZD7_3, Q9H5P4
T4 sequence (Q9H5P4 857-944, limits assumed, looked up): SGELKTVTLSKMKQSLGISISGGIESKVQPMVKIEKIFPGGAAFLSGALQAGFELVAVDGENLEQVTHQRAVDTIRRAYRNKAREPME

T5: TJP3_3, O95049
T5 sequence (O95049 375-456, limits assumed, looked up): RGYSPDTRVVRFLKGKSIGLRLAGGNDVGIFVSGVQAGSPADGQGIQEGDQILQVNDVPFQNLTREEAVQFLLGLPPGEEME

T6: APBA2_2, Q99767
T6 sequence (Q99767 654-744, limits assumed, looked up): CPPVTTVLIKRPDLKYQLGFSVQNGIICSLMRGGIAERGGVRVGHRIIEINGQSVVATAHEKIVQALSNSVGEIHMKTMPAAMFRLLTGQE

T7: SYNJ2BP, P57105
T7 sequence (P57105 8-110, limits assumed, looked up): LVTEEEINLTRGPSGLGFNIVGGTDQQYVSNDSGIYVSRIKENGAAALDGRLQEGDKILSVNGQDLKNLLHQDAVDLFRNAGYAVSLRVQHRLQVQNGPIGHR

T8: SNTB1, Q13884
T8 sequence (Q13884 107-205, limits assumed, looked up): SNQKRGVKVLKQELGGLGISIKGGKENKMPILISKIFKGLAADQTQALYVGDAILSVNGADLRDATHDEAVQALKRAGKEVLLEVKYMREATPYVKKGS

T9: SNTA1, Q13424
T9 sequence (Q13424 82-180, limits assumed, looked up): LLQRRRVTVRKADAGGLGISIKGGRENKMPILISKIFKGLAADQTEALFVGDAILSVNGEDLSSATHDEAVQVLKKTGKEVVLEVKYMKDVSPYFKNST

T10: SIPA1L2, Q9P2F8
T10 sequence (Q9P2F8 945-1036, limits assumed, looked up): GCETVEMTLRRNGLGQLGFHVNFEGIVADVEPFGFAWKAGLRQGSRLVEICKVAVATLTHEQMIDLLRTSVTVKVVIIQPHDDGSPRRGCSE

T11: DVL3, Q92997
T11 sequence (Q92997 244-331, limits assumed, looked up): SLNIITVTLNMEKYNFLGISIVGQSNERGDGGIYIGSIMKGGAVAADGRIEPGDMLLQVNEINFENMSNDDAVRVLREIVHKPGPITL

T12: APBA3_1, O96018
T12 sequence (O96018 389-490, limits assumed, looked up): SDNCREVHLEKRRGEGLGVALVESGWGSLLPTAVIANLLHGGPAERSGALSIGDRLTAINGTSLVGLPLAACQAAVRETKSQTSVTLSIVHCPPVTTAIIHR

T13: CARD11, Q9BXL7
T13 sequence (Q9BXL7 662-765, limits assumed, looked up): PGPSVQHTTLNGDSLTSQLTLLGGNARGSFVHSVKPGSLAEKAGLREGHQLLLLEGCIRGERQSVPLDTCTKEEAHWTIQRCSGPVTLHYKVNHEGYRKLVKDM


Molecular target: T1, SHANK1, Q9Y566
Assay: holdup assay
Parameters: key: below the threshold = too weak to quantify, mostly under pKd 3.1 to 4
Conditions: plain residues with an end cap or a label only (N-terminal biotin on a linker: ado-ado)

| pKd | Binder |
| --- | --- |
| 4.99 | TSQESEDTYL [TBC1D10A, Q9BXI6] |
| below the threshold | HLRARKSEWV [GJD4, Q96KN9] |

Molecular target: MAGI2_6, Q86UL8
Sequence (Q86UL8 1141-1229): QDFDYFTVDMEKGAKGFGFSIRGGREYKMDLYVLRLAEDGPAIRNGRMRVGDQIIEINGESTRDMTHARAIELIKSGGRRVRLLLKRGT
Assay: holdup assay
Parameters: key: below the threshold = too weak to quantify, mostly under pKd 3.1 to 4
Conditions: plain residues with an end cap or a label only (N-terminal biotin on a linker: ado-ado)

| pKd | Binder |
| --- | --- |
| 3.98 | TSQESEDTYL [TBC1D10A, Q9BXI6] |
| 3.85 | HLRARKSEWV [GJD4, Q96KN9] |

Molecular target: T2, GRIP1_5, Q9Y3R0
Assay: holdup assay
Parameters: key: below the threshold = too weak to quantify, mostly under pKd 3.1 to 4
Conditions: plain residues with an end cap or a label only (N-terminal biotin on a linker: ado-ado)

| pKd | Binder |
| --- | --- |
| below the threshold | TSQESEDTYL [TBC1D10A, Q9BXI6] |
| below the threshold | HLRARKSEWV [GJD4, Q96KN9] |

Molecular target: T3, DLG3_1, Q92796
Assay: holdup assay
Parameters: key: below the threshold = too weak to quantify, mostly under pKd 3.1 to 4
Conditions: plain residues with an end cap or a label only (N-terminal biotin on a linker: ado-ado)

| pKd | Binder |
| --- | --- |
| below the threshold | TSQESEDTYL [TBC1D10A, Q9BXI6] |
| below the threshold | HLRARKSEWV [GJD4, Q96KN9] |

Molecular target: T4, PDZD7_3, Q9H5P4
Assay: holdup assay
Parameters: key: below the threshold = too weak to quantify, mostly under pKd 3.1 to 4
Conditions: plain residues with an end cap or a label only (N-terminal biotin on a linker: ado-ado)

| pKd | Binder |
| --- | --- |
| 3.9 | TSQESEDTYL [TBC1D10A, Q9BXI6] |
| below the threshold | HLRARKSEWV [GJD4, Q96KN9] |

Molecular target: T5, TJP3_3, O95049
Assay: holdup assay
Parameters: key: below the threshold = too weak to quantify, mostly under pKd 3.1 to 4
Conditions: plain residues with an end cap or a label only (N-terminal biotin on a linker: ado-ado)

| pKd | Binder |
| --- | --- |
| below the threshold | TSQESEDTYL [TBC1D10A, Q9BXI6] |
| 4.63 | HLRARKSEWV [GJD4, Q96KN9] |

Molecular target: T6, APBA2_2, Q99767
Assay: holdup assay
Parameters: key: below the threshold = too weak to quantify, mostly under pKd 3.1 to 4
Conditions: plain residues with an end cap or a label only (N-terminal biotin on a linker: ado-ado)

| pKd | Binder |
| --- | --- |
| below the threshold | TSQESEDTYL [TBC1D10A, Q9BXI6] |
| below the threshold | HLRARKSEWV [GJD4, Q96KN9] |

Molecular target: T7, SYNJ2BP, P57105
Assay: holdup assay
Parameters: key: below the threshold = too weak to quantify, mostly under pKd 3.1 to 4
Conditions: plain residues with an end cap or a label only (N-terminal biotin on a linker: ado-ado)

| pKd | Binder |
| --- | --- |
| 3.93 | TSQESEDTYL [TBC1D10A, Q9BXI6] |
| 4.2 | HLRARKSEWV [GJD4, Q96KN9] |

Molecular target: T8, SNTB1, Q13884
Assay: holdup assay
Parameters: key: below the threshold = too weak to quantify, mostly under pKd 3.1 to 4
Conditions: plain residues with an end cap or a label only (N-terminal biotin on a linker: ado-ado)

| pKd | Binder |
| --- | --- |
| 3.79 | TSQESEDTYL [TBC1D10A, Q9BXI6] |
| below the threshold | HLRARKSEWV [GJD4, Q96KN9] |

Molecular target: DLG5_1, Q8TDM6
Sequence (Q8TDM6 617-713): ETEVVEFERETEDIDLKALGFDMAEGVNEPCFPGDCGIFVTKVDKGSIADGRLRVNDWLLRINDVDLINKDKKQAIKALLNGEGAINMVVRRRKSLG
Assay: holdup assay
Parameters: key: below the threshold = too weak to quantify, mostly under pKd 3.1 to 4
Conditions: plain residues with an end cap or a label only (N-terminal biotin on a linker: ado-ado)

| pKd | Binder |
| --- | --- |
| below the threshold | TSQESEDTYL [TBC1D10A, Q9BXI6] |
| below the threshold | HLRARKSEWV [GJD4, Q96KN9] |

Molecular target: MAGI2_5, Q86UL8
Sequence (Q86UL8 915-1017): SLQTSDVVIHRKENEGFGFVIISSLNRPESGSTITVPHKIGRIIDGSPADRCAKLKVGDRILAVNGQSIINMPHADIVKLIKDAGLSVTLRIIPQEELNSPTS
Assay: holdup assay
Parameters: key: below the threshold = too weak to quantify, mostly under pKd 3.1 to 4
Conditions: plain residues with an end cap or a label only (N-terminal biotin on a linker: ado-ado)

| pKd | Binder |
| --- | --- |
| below the threshold | TSQESEDTYL [TBC1D10A, Q9BXI6] |
| below the threshold | HLRARKSEWV [GJD4, Q96KN9] |

Molecular target: HTRA1, Q92743
Sequence (Q92743 360-477): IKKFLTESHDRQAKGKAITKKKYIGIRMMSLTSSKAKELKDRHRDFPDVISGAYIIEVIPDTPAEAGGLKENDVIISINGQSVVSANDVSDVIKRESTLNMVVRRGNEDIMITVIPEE
Assay: holdup assay
Parameters: key: below the threshold = too weak to quantify, mostly under pKd 3.1 to 4
Conditions: plain residues with an end cap or a label only (N-terminal biotin on a linker: ado-ado)

| pKd | Binder |
| --- | --- |
| 4.7 | TSQESEDTYL [TBC1D10A, Q9BXI6] |
| 4.38 | HLRARKSEWV [GJD4, Q96KN9] |

Molecular target: PDLIM1, O00151
Sequence (O00151 1-87): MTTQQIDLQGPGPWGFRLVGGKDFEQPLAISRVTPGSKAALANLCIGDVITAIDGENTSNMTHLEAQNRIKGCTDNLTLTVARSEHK
Assay: holdup assay
Parameters: key: below the threshold = too weak to quantify, mostly under pKd 3.1 to 4
Conditions: plain residues with an end cap or a label only (N-terminal biotin on a linker: ado-ado)

| pKd | Binder |
| --- | --- |
| below the threshold | TSQESEDTYL [TBC1D10A, Q9BXI6] |
| below the threshold | HLRARKSEWV [GJD4, Q96KN9] |

Molecular target: T9, SNTA1, Q13424
Assay: holdup assay
Parameters: key: below the threshold = too weak to quantify, mostly under pKd 3.1 to 4
Conditions: plain residues with an end cap or a label only (N-terminal biotin on a linker: ado-ado)

| pKd | Binder |
| --- | --- |
| 3.91 | TSQESEDTYL [TBC1D10A, Q9BXI6] |
| below the threshold | HLRARKSEWV [GJD4, Q96KN9] |

Molecular target: T10, SIPA1L2, Q9P2F8
Assay: holdup assay
Parameters: key: below the threshold = too weak to quantify, mostly under pKd 3.1 to 4
Conditions: plain residues with an end cap or a label only (N-terminal biotin on a linker: ado-ado)

| pKd | Binder |
| --- | --- |
| below the threshold | TSQESEDTYL [TBC1D10A, Q9BXI6] |
| below the threshold | HLRARKSEWV [GJD4, Q96KN9] |

Molecular target: SCRIB_2, Q14160
Sequence (Q14160 857-960): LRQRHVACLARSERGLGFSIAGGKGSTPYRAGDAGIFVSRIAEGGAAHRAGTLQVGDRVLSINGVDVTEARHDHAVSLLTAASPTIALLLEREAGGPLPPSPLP
Assay: holdup assay
Parameters: key: below the threshold = too weak to quantify, mostly under pKd 3.1 to 4
Conditions: plain residues with an end cap or a label only (N-terminal biotin on a linker: ado-ado)

| pKd | Binder |
| --- | --- |
| below the threshold | TSQESEDTYL [TBC1D10A, Q9BXI6] |
| below the threshold | HLRARKSEWV [GJD4, Q96KN9] |

Molecular target: MAST1, Q9Y2H9
Sequence (Q9Y2H9 962-1065): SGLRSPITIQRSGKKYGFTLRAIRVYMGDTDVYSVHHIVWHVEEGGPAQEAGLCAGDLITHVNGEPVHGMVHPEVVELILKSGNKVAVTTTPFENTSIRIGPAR
Assay: holdup assay
Parameters: key: below the threshold = too weak to quantify, mostly under pKd 3.1 to 4
Conditions: plain residues with an end cap or a label only (N-terminal biotin on a linker: ado-ado)

| pKd | Binder |
| --- | --- |
| 4.71 | TSQESEDTYL [TBC1D10A, Q9BXI6] |
| below the threshold | HLRARKSEWV [GJD4, Q96KN9] |

Molecular target: GRIP2_4, Q9C0E4
Sequence (Q9C0E4 446-548): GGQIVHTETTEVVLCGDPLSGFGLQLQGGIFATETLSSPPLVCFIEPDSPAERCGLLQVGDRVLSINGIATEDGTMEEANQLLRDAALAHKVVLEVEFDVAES
Assay: holdup assay
Parameters: key: below the threshold = too weak to quantify, mostly under pKd 3.1 to 4
Conditions: plain residues with an end cap or a label only (N-terminal biotin on a linker: ado-ado)

| pKd | Binder |
| --- | --- |
| below the threshold | TSQESEDTYL [TBC1D10A, Q9BXI6] |
| below the threshold | HLRARKSEWV [GJD4, Q96KN9] |

Molecular target: T11, DVL3, Q92997
Assay: holdup assay
Parameters: key: below the threshold = too weak to quantify, mostly under pKd 3.1 to 4
Conditions: plain residues with an end cap or a label only (N-terminal biotin on a linker: ado-ado)

| pKd | Binder |
| --- | --- |
| below the threshold | TSQESEDTYL [TBC1D10A, Q9BXI6] |
| 3.79 | HLRARKSEWV [GJD4, Q96KN9] |

Molecular target: Inadl_4, Q8NI35
Sequence (Q8NI35 547-651): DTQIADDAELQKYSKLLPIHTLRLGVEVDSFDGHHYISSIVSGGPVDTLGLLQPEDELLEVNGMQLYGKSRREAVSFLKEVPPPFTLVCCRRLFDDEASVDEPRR
Assay: holdup assay
Parameters: key: below the threshold = too weak to quantify, mostly under pKd 3.1 to 4
Conditions: plain residues with an end cap or a label only (N-terminal biotin on a linker: ado-ado)

| pKd | Binder |
| --- | --- |
| below the threshold | TSQESEDTYL [TBC1D10A, Q9BXI6] |
| below the threshold | HLRARKSEWV [GJD4, Q96KN9] |

Molecular target: T12, APBA3_1, O96018
Assay: holdup assay
Parameters: key: below the threshold = too weak to quantify, mostly under pKd 3.1 to 4
Conditions: plain residues with an end cap or a label only (N-terminal biotin on a linker: ado-ado)

| pKd | Binder |
| --- | --- |
| below the threshold | TSQESEDTYL [TBC1D10A, Q9BXI6] |
| below the threshold | HLRARKSEWV [GJD4, Q96KN9] |

Molecular target: GRID2IP_2, A4D2P6
Sequence (A4D2P6 272-370): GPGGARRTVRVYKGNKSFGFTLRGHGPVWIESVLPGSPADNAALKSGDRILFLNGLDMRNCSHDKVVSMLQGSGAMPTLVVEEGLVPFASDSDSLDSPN
Assay: holdup assay
Parameters: key: below the threshold = too weak to quantify, mostly under pKd 3.1 to 4
Conditions: plain residues with an end cap or a label only (N-terminal biotin on a linker: ado-ado)

| pKd | Binder |
| --- | --- |
| below the threshold | TSQESEDTYL [TBC1D10A, Q9BXI6] |
| 3.89 | HLRARKSEWV [GJD4, Q96KN9] |

Molecular target: T13, CARD11, Q9BXL7
Assay: holdup assay
Parameters: key: below the threshold = too weak to quantify, mostly under pKd 3.1 to 4
Conditions: plain residues with an end cap or a label only (N-terminal biotin on a linker: ado-ado)

| pKd | Binder |
| --- | --- |
| below the threshold | TSQESEDTYL [TBC1D10A, Q9BXI6] |
| below the threshold | HLRARKSEWV [GJD4, Q96KN9] |

Molecular target: Inadl_6, Q8NI35
Sequence (Q8NI35 1058-1167): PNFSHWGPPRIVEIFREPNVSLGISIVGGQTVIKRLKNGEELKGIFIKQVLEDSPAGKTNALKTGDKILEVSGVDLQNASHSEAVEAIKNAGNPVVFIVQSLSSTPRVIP
Assay: holdup assay
Parameters: key: below the threshold = too weak to quantify, mostly under pKd 3.1 to 4
Conditions: plain residues with an end cap or a label only (N-terminal biotin on a linker: ado-ado)

| pKd | Binder |
| --- | --- |
| 3.78 | TSQESEDTYL [TBC1D10A, Q9BXI6] |
| below the threshold | HLRARKSEWV [GJD4, Q96KN9] |

Molecular target: DLG1_1, Q12959
Assay: holdup assay
Parameters: key: below the threshold = too weak to quantify, mostly under pKd 3.1 to 4
Conditions: plain residues with an end cap or a label only (N-terminal biotin on a linker: ado-ado)

| pKd | Binder |
| --- | --- |
| below the threshold | TSQESEDTYL [TBC1D10A, Q9BXI6] |
| below the threshold | HLRARKSEWV [GJD4, Q96KN9] |

Reference: PMC9482650, “Quantitative fragmentomics allow affinity mapping of interactomes” (Nature Communications, 2022)
